The record followed here is PMC10099716, “A De Novo Sequence Variant in Barrier-to-Autointegration Factor Is Associated with Dominant Motor Neuronopathy”.

Series [1] deals with Barrier-to-autointegration factor Gly16Arg variant (BAF Gly16Arg), all cysteines replaced with alanines (human) (UniProt O75531). The series is described as follows: SEC; gel filtration of purified, refolded BAF on a Superdex 200 pg HiLoad 16/600 column; elution profiles of WT and Gly16Arg compared. In general terms: SEC sorts molecules by how far they enter the pores of the column.

The target of series [2] is Barrier-to-autointegration factor wild type (BAF WT), all cysteines replaced with alanines (human) (UniProt O75531). The series is described as follows: ITC; VP-ITC; 10-20 µM monomeric BAF (WT or Gly16Arg) in the cell, 100 µM lamin A/C IgFold domain in the syringe; 50 mM Hepes pH 7.4, 150 mM NaCl; 288 K; duplicate, mean values; stoichiometry set to 0.5 (one IgFold domain for each BAF dimer assumed). For orientation: Isothermal titration calorimetry measures the heat released or taken up as one component is titrated into another.

The target in series [3] is Barrier-to-autointegration factor Gly16Arg variant (BAF Gly16Arg), all cysteines replaced with alanines (human) (UniProt O75531). The series is described as above.
Series [4] concerns the target T1, BAF WT (Cys-to-Ala background) (Homo sapiens, UniProt O75531 1-89, C67A;C77A;C80A;C85A).
T1 sequence: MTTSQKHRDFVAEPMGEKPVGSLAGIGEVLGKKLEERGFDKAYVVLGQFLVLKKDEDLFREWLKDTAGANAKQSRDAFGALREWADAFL
Kind of series: ITC; unphosphorylated; 288 K; mean of 2; ITC: 50 mM Hepes pH 7.4, 150 mM NaCl, 288 K; 10-20 uM BAF monomer in cell, 31-33 uM dsDNA in syringe. The note with it: protein: recombinant; tags: His8-TEV, cleaved; chain copies: 2.

Series [5] addresses T2, BAF Gly16Arg (Cys-to-Ala background) (Homo sapiens, UniProt O75531 1-89, G16R;C67A;C77A;C80A;C85A).
T2 sequence: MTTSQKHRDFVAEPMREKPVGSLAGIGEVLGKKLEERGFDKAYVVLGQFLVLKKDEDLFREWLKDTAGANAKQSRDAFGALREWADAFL
The series is described as above. The following applies: protein: recombinant; tags: His8-TEV, cleaved; chain copies: 2.

In general, stoichiometry N refers to the number of molecules, sites or subunits per partner or assembly. Usually Kd stands for a measure of binding affinity in units of concentration.

In series [1], “Barrier-to-autointegration factor Gly16Arg variant (BAF Gly16Arg), all cysteines replaced with alanines (from UniProt O75531 1-89) (natural protein)” showed a stoichiometry N of 2.

Take “lamin A/C IgFold domain (human lamin A/C residues 411 to 566) (from UniProt P02545 411-566) (domain or fragment)”: the Kd amounted to 2700 nM in series [2] and 9 µM in series [3].

B1: 22-nt dsDNA (dsDNA)
DNA 1: CTAGGGTTAGGGTTAGGGTTAG
DNA 2: CTAACCCTAACCCTAACCCTAG
For the molecule B1, the dissociation constant (Kd) in series [4] came out at 117 ± 58 nM; in series [5], 16.3 ± 5.7 nM.
